2 molecules from article doi:10.1101/2024.12.02.626350 (bioRxiv, 2024) can be followed below.

T1: nicotinic acetylcholine receptor (nAChR) δ subunit, muscle-type, Torpedo (Tetronarce californica, UniProt P02718 22-522)
T1 sequence: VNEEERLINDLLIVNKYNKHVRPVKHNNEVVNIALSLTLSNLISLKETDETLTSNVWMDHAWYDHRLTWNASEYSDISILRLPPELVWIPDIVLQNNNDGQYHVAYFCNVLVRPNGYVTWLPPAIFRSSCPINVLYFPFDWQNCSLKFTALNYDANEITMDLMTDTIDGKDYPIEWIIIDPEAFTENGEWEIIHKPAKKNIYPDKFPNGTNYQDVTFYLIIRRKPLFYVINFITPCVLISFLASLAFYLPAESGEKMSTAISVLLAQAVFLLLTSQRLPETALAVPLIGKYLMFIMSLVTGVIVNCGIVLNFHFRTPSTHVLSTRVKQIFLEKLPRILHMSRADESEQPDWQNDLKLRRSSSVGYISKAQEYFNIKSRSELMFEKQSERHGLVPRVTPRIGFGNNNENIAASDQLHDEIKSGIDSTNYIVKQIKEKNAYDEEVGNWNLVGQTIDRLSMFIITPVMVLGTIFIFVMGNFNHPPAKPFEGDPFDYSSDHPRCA

B1: nicotinic acetylcholine receptor (nAChR) β subunit, muscle-type, Torpedo (natural protein)
chain: SVMEDTLLSVLFETYNPKVRPAQTVGDKVTVRVGLTLTNLLILNEKIEEMTTNVFLNLAWTDYRLQWDPAAYEGIKDLRIPSSDVWQPDIVLMNNNDGSFEITLHVNVLVQHTGAVSWQPSAIYRSSCTIKVMYFPFDWQNCTMVFKSYTYDTSEVTLQHALDAKGEREVKEIVINKDAFTENGQWSIEHKPSRKNWRSDDPSYEDVTFYLIIQRKPLFYIVYTIIPCILISILAILVFYLPPDAGEKMSLSISALLAVTVFLLLLADKVPETSLSVPIIIRYLMFIMILVAFSVILSVVVLNLHHRSPNTHTMPNWIRQIFIETLPPFLWIQRPVTTPSPDSKPTIISRANDEYFIRKPAGDFVCPVDNARVAVQPERLFSEMKWHLNGLTQPVTLPQDLKEAVEAIKYIAEQLESASEFDDLKKDWQYVAMVADRLFLYVFFVICSIGTFSIFLDASHNVPPDNPFA
B2: nicotinic acetylcholine receptor (nAChR) α subunit, muscle-type, Torpedo (natural protein)
chain: SEHETRLVANLLENYNKVIRPVEHHTHFVDITVGLQLIQLISVDEVNQIVETNVRLRQQWIDVRLRWNPADYGGIKKIRLPSDDVWLPDLVLYNNADGDFAIVHMTKLLLDYTGKIMWTPPAIFKSYCEIIVTHFPFDQQNCTMKLGIWTYDGTKVSISPESDRPDLSTFMESGEWVMKDYRGWKHWVYYTCCPDTPYLDITYHFIMQRIPLYFVVNVIIPCLLFSFLTGLVFYLPTDSGEKMTLSISVLLSLTVFLLVIVELIPSTSSAVPLIGKYMLFTMIFVISSIIITVVVINTHHRSPSTHTMPQWVRKIFIDTIPNVMFFSTMKRASKEKQENKIFADDIDISDISGKQVTGEVIFQTPLIKNPDVKSAIEGVKYIAEHMKSDEESSNAAEEWKYVAMVIDHILLCVFMLICIIGTVSVFAGRLIELSQEG

For assay [1], the target named is T1, nicotinic acetylcholine receptor …. The assay can be described thus: cryo-EM structure.
The target in assay [2] is B1. The assay is described as follows: cryo-EM structure.

As for B1, the binding result in assay [1] is reported as “binds”. For B2, in assay [2], the binding result is recorded as “binds”.
